Data taken from patent US20240000957A1 (published 2024).
*1 amine or outer side, *2 acyl side, *3 side chain or, on linkers, in order; H or OH if unused. Bridges are numbered along the chain shown (N, C = ends). Where no end group is shown, it is not given here. TATA = O=C(CC[*:1])N1CN(C(=O)CC[*:2])CN(C(=O)CC[*:3])C1

Biological target: T1, Human EphA2 (Ecto), C-terminal polyHis (Human, UniProt P29317 24-537)
T1 construct: extracellular domain; R&D systems 3035-A2 or in-house
Assay: FP competition vs Reference Compound C

T1 sequence (P29317 24-537): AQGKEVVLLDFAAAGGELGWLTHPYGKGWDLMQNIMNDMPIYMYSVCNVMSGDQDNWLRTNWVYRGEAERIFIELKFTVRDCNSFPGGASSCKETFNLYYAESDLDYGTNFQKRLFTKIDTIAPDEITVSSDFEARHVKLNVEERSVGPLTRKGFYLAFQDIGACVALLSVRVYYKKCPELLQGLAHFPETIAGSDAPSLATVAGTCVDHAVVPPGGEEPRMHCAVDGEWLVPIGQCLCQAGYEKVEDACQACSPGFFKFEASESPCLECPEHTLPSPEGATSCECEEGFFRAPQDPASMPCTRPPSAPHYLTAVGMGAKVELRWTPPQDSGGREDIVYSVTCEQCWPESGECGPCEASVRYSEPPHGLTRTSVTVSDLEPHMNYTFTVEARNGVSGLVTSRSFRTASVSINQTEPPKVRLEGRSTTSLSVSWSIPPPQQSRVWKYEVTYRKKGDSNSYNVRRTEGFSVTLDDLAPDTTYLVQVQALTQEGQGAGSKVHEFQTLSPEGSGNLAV

Binder: GSGCKPDSRCAYMNVCA (linker 4-10-16 via TATA; not fully specified (C-terminus)) [Compound 22]
- Ki: 0.0633 µM

Binder: ACPLVNPLCNLPGWTCA (linker 2-9-16 via TATA; not fully specified (C-terminus)) [Compound 56]
- Ki: 0.184 µM

Binder: ACPLVNPLCLLDGWTCA (linker 2-9-16 via TATA; not fully specified (C-terminus)) [Compound 58]
- Ki: 0.0384 µM

Binder: ETVCLPDSRCAYMNVCA (linker 4-10-16 via TATA; not fully specified (C-terminus)) [Compound 23]
- Ki: 0.13 µM

Binder: ACPDWGKYCAYPDTICA (linker 2-9-16 via TATA; not fully specified (C-terminus)) [Compound 36]
- Ki: 0.16 µM

Binder: ACGFMGLEPCELYCAHT (linker 2-10-14 via TATA; not fully specified (C-terminus)) [Compound 49]
- Ki: 0.144 µM

Binder: ACGFMGLVPCNVFCA (linker 2-10-14 via TATA; not fully specified (C-terminus)) [Compound 45]
- Ki: 0.142 µM

Binder: ACGFMGLVPCEVHCA (linker 2-10-14 via TATA; not fully specified (C-terminus)) [Compound 41]
- Ki: 0.155 µM

Binder: ACPLVNPLCLMPGWGCA (linker 2-9-16 via TATA; not fully specified (C-terminus)) [Compound 59]
- Ki: 0.115 µM

Binder: SRPCVIDSRCAYMNVCA (linker 4-10-16 via TATA) [Compound 19]
- Ki: 0.0948 µM

Binder: ACGFMGLEPCELFCMPK (linker 2-10-14 via TATA; not fully specified (C-terminus)) [Compound 47]
- Ki: 0.185 µM

Binder: ACGFMGLEPCELFCA (linker 2-10-14 via TATA; not fully specified (C-terminus)) [Compound 46]
- Ki: 0.0817 µM

Binder: ACGFMGLEPCELVCA (linker 2-10-14 via TATA; not fully specified (C-terminus)) [Compound 44]
- Ki: 0.127 µM

Binder: ACGFMGLEPCETFCA (linker 2-10-14 via TATA; not fully specified (C-terminus)) [Compound 40]
- Ki: 0.188 µM

Binder: ACGFMGLEPCEMVCA (linker 2-10-14 via TATA; not fully specified (C-terminus)) [Compound 42]
- Ki: 0.321 µM

Binder: ACGFMGLEPCEMYCA (linker 2-10-14 via TATA; not fully specified (C-terminus)) [Compound 50]
- Ki: 0.14 µM

Binder: ACQSCWAYPDTYCA (linker 2-5-13 via TATA; not fully specified (C-terminus)) [Compound 39]
- Ki: 0.321 µM

Binder: ACVPDRRCAFQDVCDHE (linker 2-8-14 via TATA; not fully specified (C-terminus)) [Compound 27]
- Ki: 0.159 µM

Binder: ACPLVNPLCLTSGWKCA (linker 2-9-16 via TATA; not fully specified (C-terminus)) [Compound 52]
- Ki: 0.115 µM

Binder: ESRCSPDARCAYMNVCA (linker 4-10-16 via TATA) [Compound 20]
- Ki: 0.057 µM

Binder: HSGCRPDPRCAYMNVCA (linker 4-10-16 via TATA) [Compound 21]
- Ki: 0.0621 µM

Binder: ACPLVNPLCLMTGWSCA (linker 2-9-16 via TATA; not fully specified (C-terminus)) [Compound 61]
- Ki: 0.241 µM

Binder: ACRGEWGYCAYPDTICA (linker 2-9-16 via TATA; not fully specified (C-terminus)) [Compound 34]
- Ki: 0.348 µM

Binder: ACSSCWAYPDSVCA (linker 2-5-13 via TATA; not fully specified (C-terminus)) [Compound 38]
- Ki: 0.4 µM

Binder: ACGFMGLVPCELYCADN (linker 2-10-14 via TATA; not fully specified (C-terminus)) [Compound 51]
- Ki: 0.0844 µM

Binder: ACVPDRRCAFRDVCLTG (linker 2-8-14 via TATA; not fully specified (C-terminus)) [Compound 28]
- Ki: 1.7 µM

Binder: ACVPDRRCAFMNVCEDR (linker 2-8-14 via TATA; not fully specified (C-terminus)) [Compound 26]
- Ki: 0.0391 µM

Binder: ACGFMGLEPCVTYCA (linker 2-10-14 via TATA; not fully specified (C-terminus)) [Compound 43]
- Ki: 0.234 µM

Binder: ACPLVNPLCMMGGWKCA (linker 2-9-16 via TATA; not fully specified (C-terminus)) [Compound 62]
- Ki: 0.0671 µM

Binder: ACPLVNPLCMIGNWTCA (linker 2-9-16 via TATA; not fully specified (C-terminus)) [Compound 60]
- Ki: 0.0962 µM

Binder: ACTKPTGFCAYPDTICA (linker 2-9-16 via TATA; not fully specified (C-terminus)) [Compound 33]
- Ki: 0.269 µM

Binder: ACVPDRRCAFENVCVDH (linker 2-8-14 via TATA; not fully specified (C-terminus)) [Compound 25]
- Ki: 0.0973 µM

Binder: ACRNWGMYCAYPDTICA (linker 2-9-16 via TATA; not fully specified (C-terminus)) [Compound 35]
- Ki: 0.283 µM
